The term Kd denotes the concentration at which binding is half-saturated. A lower Kd goes with higher affinity.

Sequences and labels used below:
B1: X2CA-2-B4-IGFR (peptide)
peptide: CCLLCRFQQNFYDWFVCQGISRLRPL
modifications: disulfide (positions not given here); also: disulfide among the four cysteines, pairing not given here

Non-standard residues stand in square brackets, D forms with d. No end group written: not given here.

The target of one test is T1, Insulin receptor prepared according to Bass et al., 1996: soluble human insulin receptor-immunoglobulin heavy … (human, UniProt P06213 28-956).
T1 construct: extracellular domain; Eu3+-labelled in TR-FRET; also called IR; sIR-Fc; not shown: immunoglobulin heavy chain constant domains that replace the transmembrane and i
In words: phage ELISA, vs IGF-1R. (In general: In an ELISA, binding on a coated surface is turned into a signal by an enzyme label.)
On to PPLASDLDVQFYGWFVQQVSPPGRGG [H2CA-2-B3-IGFR], for which the “IR/IGF-1R Comparison” value worked out at 0.3 ratio.

Consider RAGSSDFHEDFYEWFVRQVSLSLKGK [H2CA-2-B9-IGFR], for which the “IR/IGF-1R Comparison” value was 0.2 ratio.

Regarding GFREGSFYDWFQAQVT [E4Dα-2-D11-IR], the “IR/IGF-1R Comparison” value was 0.3 ratio.

For AVRATRFDEAFYDWFVRQISDGQGNK [H2CA-4-86-GFR], the “IR/IGF-1R Comparison” value stood at 0.2 ratio.

Consider B1, for which the “IR/IGF-1R Comparison” value was 0.3 ratio.

On to QAVQPGFHEEFYDWFVRQVSTGVGGG [H2CA-4-H4-IGFR], for which the “IR/IGF-1R Comparison” value was found to be 0.2 ratio.

Consider VNQSGSIHENFYDWFERQVSHQRGVR [H2CA-4-F1O-IGFR], for which the “IR/IGF-1R Comparison” value was found to be 0.2 ratio.

With GFREGNFYEWFQAQVT [E4Da-4-H2-IR], the “IR/IGF-1R Comparison” value is 0.2 ratio.

For QSPVGSSHEDFYDWFFRQVAQSGAHQ [N2CA-3-D6-IGFR], the “IR/IGF-1R Comparison” value amounted to 0.3 ratio.

With RCGRELYHSTFYDWFDRQVAGRTCPS [H2CA-1-A7-IGFR], the “IR/IGF-1R Comparison” value came to 0.3 ratio.

Regarding NYRRQVFNGNFYDWFDRQVFSLVTPG [142CA-3-D8-IGFR], the “IR/IGF-1R Comparison” value was 0.3 ratio.

For the molecule SSIGGGFHENFYDWFSRQLSQSPPLK [N2CA-4-F7-IGFR], the “IR/IGF-1R Comparison” value amounted to 0.2 ratio.

Turning to TLDGGSFEEQFYDWFVRQLSYRTNPD [H2CA-4-G11-IGFR], the “IR/IGF-1R Comparison” value came out at 0.3 ratio.

As for LRRQAPVEENFYDWFVRQVSGDRVGG [H2CA-3-D7-IGFR], the “IR/IGF-1R Comparison” value stood at 0.3 ratio.

FYVQQWGHENFYDWFDRQVSQSGGAG [H2CA-4-F1-IGFR]: the “IR/IGF-1R Comparison” value was 0.3 ratio.

Take SSCDGAGHESFYEWFVRQVSGCRSV (not fully specified (bridges); cysteine pairing not given here) [H2CA-3-C8-IGFR]: the “IR/IGF-1R Comparison” value amounted to 0.2 ratio.

For the molecule SQAGSAFYAWFDQVLRTVHSA [20E2Bβ-4-G6-IR], the “IR/IGF-1R Comparison” value was determined as 0.3 ratio.

Take APDPSDFQEIFYDWFVRQVSRMPGGG [H2CA-1-A3-IGFR]: the “IR/IGF-1R Comparison” value was 0.2 ratio.

GAPVDQLHEDFYDWFVRQVSQAATG [E2CA-2-B2-IGFR]: the “IR/IGF-1R Comparison” value was found to be 0.3 ratio.

For a further test, the target named is T1, Insulin receptor prepared according to …. Put plainly: phage ELISA vs milk.
As to PPLASDLDVQFYGWFVQQVSPPGRGG [H2CA-2-B3-IGFR], the “Ratio over Background” value was 1 fold.

Take RAGSSDFHEDFYEWFVRQVSLSLKGK [H2CA-2-B9-IGFR]: the “Ratio over Background” value was 1.7 fold.

For the molecule GFREGSFYDWFQAQVT [E4Dα-2-D11-IR], the “Ratio over Background” value came out at 3.3 fold.

Turning to AVRATRFDEAFYDWFVRQISDGQGNK [H2CA-4-86-GFR], the “Ratio over Background” value was determined as 1.1 fold.

As for B1, the “Ratio over Background” value is 1.1 fold.

For QAVQPGFHEEFYDWFVRQVSTGVGGG [H2CA-4-H4-IGFR], the “Ratio over Background” value was determined as 1 fold.

As for VNQSGSIHENFYDWFERQVSHQRGVR [H2CA-4-F1O-IGFR], the “Ratio over Background” value was 1 fold.

Take GFREGNFYEWFQAQVT [E4Da-4-H2-IR]: the “Ratio over Background” value stood at 8.2 fold.

Turning to QSPVGSSHEDFYDWFFRQVAQSGAHQ [N2CA-3-D6-IGFR], the “Ratio over Background” value stood at 2.2 fold.

On to RCGRELYHSTFYDWFDRQVAGRTCPS [H2CA-1-A7-IGFR], for which the “Ratio over Background” value was 0.6 fold.

As to NYRRQVFNGNFYDWFDRQVFSLVTPG [142CA-3-D8-IGFR], the “Ratio over Background” value is 1.8 fold.

On to SSIGGGFHENFYDWFSRQLSQSPPLK [N2CA-4-F7-IGFR], for which the “Ratio over Background” value was 0.8 fold.

As for TLDGGSFEEQFYDWFVRQLSYRTNPD [H2CA-4-G11-IGFR], the “Ratio over Background” value came to 2.5 fold.

Turning to LRRQAPVEENFYDWFVRQVSGDRVGG [H2CA-3-D7-IGFR], the “Ratio over Background” value was 0.8 fold.

FYVQQWGHENFYDWFDRQVSQSGGAG [H2CA-4-F1-IGFR]: the “Ratio over Background” value is 0.9 fold.

For SSCDGAGHESFYEWFVRQVSGCRSV (not fully specified (bridges); cysteine pairing not given here) [H2CA-3-C8-IGFR], the “Ratio over Background” value worked out at 1.2 fold.

SQAGSAFYAWFDQVLRTVHSA [20E2Bβ-4-G6-IR]: the “Ratio over Background” value amounted to 1.9 fold.

APDPSDFQEIFYDWFVRQVSRMPGGG [H2CA-1-A3-IGFR]: the “Ratio over Background” value was 0.8 fold.

In the case of GAPVDQLHEDFYDWFVRQVSQAATG [E2CA-2-B2-IGFR], the “Ratio over Background” value worked out at 1 fold.

In the next test the target is T2, Soluble IGF-1R (R&D Systems, Cat. # 391-GR/CF); recombinant human IGF-1R (human, UniProt P08069 31-935).
T2 construct: extracellular domain; Eu3+-labelled in the TR-FRET assays; also called sIGF-1R; rhIGF-1R
Put plainly: phage ELISA vs milk.
On to PPLASDLDVQFYGWFVQQVSPPGRGG [H2CA-2-B3-IGFR], for which the “Ratio over Background” value worked out at 3.8 fold.

RAGSSDFHEDFYEWFVRQVSLSLKGK [H2CA-2-B9-IGFR]: the “Ratio over Background” value was determined as 7 fold.

Take GFREGSFYDWFQAQVT [E4Dα-2-D11-IR]: the “Ratio over Background” value came to 11.1 fold.

In the case of AVRATRFDEAFYDWFVRQISDGQGNK [H2CA-4-86-GFR], the “Ratio over Background” value is 7.3 fold.

B1: the “Ratio over Background” value amounted to 4.1 fold.

Turning to QAVQPGFHEEFYDWFVRQVSTGVGGG [H2CA-4-H4-IGFR], the “Ratio over Background” value was found to be 4.1 fold.

As for VNQSGSIHENFYDWFERQVSHQRGVR [H2CA-4-F1O-IGFR], the “Ratio over Background” value came to 5.7 fold.

Turning to GFREGNFYEWFQAQVT [E4Da-4-H2-IR], the “Ratio over Background” value is 33.9 fold.

For the molecule QSPVGSSHEDFYDWFFRQVAQSGAHQ [N2CA-3-D6-IGFR], the “Ratio over Background” value is 9 fold.

Regarding RCGRELYHSTFYDWFDRQVAGRTCPS [H2CA-1-A7-IGFR], the “Ratio over Background” value amounted to 2.2 fold.

As for NYRRQVFNGNFYDWFDRQVFSLVTPG [142CA-3-D8-IGFR], the “Ratio over Background” value was determined as 7.2 fold.

With SSIGGGFHENFYDWFSRQLSQSPPLK [N2CA-4-F7-IGFR], the “Ratio over Background” value was determined as 3.2 fold.

For the molecule TLDGGSFEEQFYDWFVRQLSYRTNPD [H2CA-4-G11-IGFR], the “Ratio over Background” value stood at 9.5 fold.

Regarding LRRQAPVEENFYDWFVRQVSGDRVGG [H2CA-3-D7-IGFR], the “Ratio over Background” value was 3 fold.

As to FYVQQWGHENFYDWFDRQVSQSGGAG [H2CA-4-F1-IGFR], the “Ratio over Background” value was found to be 3.5 fold.

In the case of SSCDGAGHESFYEWFVRQVSGCRSV (not fully specified (bridges); cysteine pairing not given here) [H2CA-3-C8-IGFR], the “Ratio over Background” value was found to be 5.6 fold.

Take SQAGSAFYAWFDQVLRTVHSA [20E2Bβ-4-G6-IR]: the “Ratio over Background” value was 6.2 fold.

For the molecule APDPSDFQEIFYDWFVRQVSRMPGGG [H2CA-1-A3-IGFR], the “Ratio over Background” value came to 3.8 fold.

GAPVDQLHEDFYDWFVRQVSQAATG [E2CA-2-B2-IGFR]: the “Ratio over Background” value was 3.4 fold.

A further test concerns the target T2, Soluble IGF-1R (R&D Systems, Cat. # …). Put plainly: phage ELISA, vs IR.
With PPLASDLDVQFYGWFVQQVSPPGRGG [H2CA-2-B3-IGFR], the “IGF-1R/IR Comparison” value was found to be 3.6 ratio.

Take RAGSSDFHEDFYEWFVRQVSLSLKGK [H2CA-2-B9-IGFR]: the “IGF-1R/IR Comparison” value amounted to 4.2 ratio.

Regarding GFREGSFYDWFQAQVT [E4Dα-2-D11-IR], the “IGF-1R/IR Comparison” value came out at 3.4 ratio.

AVRATRFDEAFYDWFVRQISDGQGNK [H2CA-4-86-GFR]: the “IGF-1R/IR Comparison” value was 6.4 ratio.

In the case of B1, the “IGF-1R/IR Comparison” value came to 3.6 ratio.

For QAVQPGFHEEFYDWFVRQVSTGVGGG [H2CA-4-H4-IGFR], the “IGF-1R/IR Comparison” value amounted to 4.2 ratio.

As for VNQSGSIHENFYDWFERQVSHQRGVR [H2CA-4-F1O-IGFR], the “IGF-1R/IR Comparison” value was 5.9 ratio.

Consider GFREGNFYEWFQAQVT [E4Da-4-H2-IR], for which the “IGF-1R/IR Comparison” value turned out to be 4.1 ratio.

For QSPVGSSHEDFYDWFFRQVAQSGAHQ [N2CA-3-D6-IGFR], the “IGF-1R/IR Comparison” value is 4 ratio.

Turning to RCGRELYHSTFYDWFDRQVAGRTCPS [H2CA-1-A7-IGFR], the “IGF-1R/IR Comparison” value amounted to 3.7 ratio.

With NYRRQVFNGNFYDWFDRQVFSLVTPG [142CA-3-D8-IGFR], the “IGF-1R/IR Comparison” value is 4 ratio.

Regarding SSIGGGFHENFYDWFSRQLSQSPPLK [N2CA-4-F7-IGFR], the “IGF-1R/IR Comparison” value worked out at 4.1 ratio.

With TLDGGSFEEQFYDWFVRQLSYRTNPD [H2CA-4-G11-IGFR], the “IGF-1R/IR Comparison” value came to 3.9 ratio.

With LRRQAPVEENFYDWFVRQVSGDRVGG [H2CA-3-D7-IGFR], the “IGF-1R/IR Comparison” value came to 3.7 ratio.

Turning to FYVQQWGHENFYDWFDRQVSQSGGAG [H2CA-4-F1-IGFR], the “IGF-1R/IR Comparison” value amounted to 3.8 ratio.

Turning to SSCDGAGHESFYEWFVRQVSGCRSV (not fully specified (bridges); cysteine pairing not given here) [H2CA-3-C8-IGFR], the “IGF-1R/IR Comparison” value was found to be 4.8 ratio.

With SQAGSAFYAWFDQVLRTVHSA [20E2Bβ-4-G6-IR], the “IGF-1R/IR Comparison” value worked out at 3.3 ratio.

As for APDPSDFQEIFYDWFVRQVSRMPGGG [H2CA-1-A3-IGFR], the “IGF-1R/IR Comparison” value worked out at 5.1 ratio.

GAPVDQLHEDFYDWFVRQVSQAATG [E2CA-2-B2-IGFR]: the “IGF-1R/IR Comparison” value amounted to 3.5 ratio.

The target of another test is human insulin receptor (HIR) (human, UniProt P06213 28-1382, limits assumed). Put plainly: 125I-insulin competition, solubilised HIR.
Consider SLEEEWAQIQAEVYGNPNSESFYDWFERQL [S602], for which binding was put at a Kd of 0.031 nM.

For SLEEEWAQIQHELYGPAESESFYD[dW]FERQL [S596], the Kd was 0.045 nM.

For SLEEEWAQIQEDLYGANHNESFYDWFERQL [S601], the Kd worked out at 0.18 nM.

On to SLEEEWAQIQHELWPVEKGESFYDWFERQL [S605], for which the Kd is 0.094 nM. This Kd is about 1.9-fold lower than that of the molecule before.

In turn, Ac-SLEEEWAQIQEDLYGANHNESFYDWFERQL [S603] displayed a Kd of 0.015 nM.

In the case of LEEEWAQIQREVWHS[dP]ASESF[dY]D[dW]FERQL [S595], the Kd amounted to 0.62 nM. Compared with the last molecule, the Kd is about 41-fold higher.

Take SLEEEWAQIECEVYGRGCPSESFYDWFERQL (not fully specified; N-terminal acetyl) [S597]: the Kd was determined as 0.0085 nM.

Source of the values: patent US20030236190A1 (published 2003).
